Patent US20240352121A1 (published 2024)
Numbering of substitutions follows the chain as printed. Values belong to the binder of their own block, whether it stands above or below them.

Experiments:
[1] = molecular target: human LAIR-1 fused to the zeta chain of CD3, on UT-140 reporter cells (UniProt P20963 31-164); assay: cell binding (flow cytometry)
[2] = molecular target: T1, LAIR-1 (human; form used for the KD not stated) (UniProt Q6GTX8 22-165); assay: kinetic binding; replicate 1
T1 chain: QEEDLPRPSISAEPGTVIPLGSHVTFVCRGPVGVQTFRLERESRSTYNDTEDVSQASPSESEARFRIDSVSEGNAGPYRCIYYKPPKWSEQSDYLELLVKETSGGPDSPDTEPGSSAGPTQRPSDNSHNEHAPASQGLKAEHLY

[3] = molecular target: T1, LAIR-1 (human; form used for the KD not …); assay: kinetic binding; replicate 3
[4] = molecular target: T1, LAIR-1 (human; form used for the KD not …); assay: kinetic binding; replicate 2

EC50 [1]: 0.15 nM
B1: hLAIR-1 mAb-Parent (antibody, V domains shown)
VH: EVQLVESGGGLVQPKGSLKLSCAASGFTFNTNAMYWVRQAPGKGLEWVARIRSKSSNYATYYADSVKDRFTISRDDSQSMLYLQMNNLKTEDTARYYCVRGGSGFFAYWGQGTLVTVSA
VL: DIQMAQSSSSFSVSLGDRVTITCKASEDIYIRLAWYQQKPGNAPRLLISTATSLETGVPSRFSGSGSGKDYTLSITSLQTEDVATYYCQQYWSTPYTFGGGTRLEIK

Kd [2]: 2.38 nM
Kd [3]: 2.34 nM
B2: h11B3 LAIR-1 mAb, Anti-LAIR-1 Variant 6 (h11B3 VL-2 / h11B3 VH-3) (antibody, V domains shown)
VH: B1 VH with K15G, A49G, D64A, D68G, Q78K, S79N, M80T, N87S, R95V, A119S
VL: DIQMTQSPSSLSASLGDRVTITCKASEDIYIRLAWYQQKPGKAPRLLISTATSLETGVPSRFSGSGSGTDYTFTISSLQPEDIATYYCQQYWSTPYTFGGGTRLEIK

Kd [2]: 1.25 nM
Kd [4]: 1.16 nM
Kd [3]: 1.95 nM
B3: 11B3 hG1 (antibody, V domains shown)
VH: B1 VH
VL: DIQMAQSSSSFSVSLGDRVTITCKASEDIYIRLAWYQQKPGNAPRLLISTATSLETGVPSRFSGSGSGKDYTLSITSLQTEDVATYYCQQYWSTPYTFGGGTRLEIKR
